Assay results as given in patent US7927850B2, “Composition containing trehalose synthase and methods of use thereof” (Academia Sinica, priority 2006, dated 2011).

Tests used:
[1] = Enzyme assay: amount of trehalose produced from maltose by PTTS; type: biochemical, Picrophilus torridus
Description: (§1) The activity of PTTS was assayed by measuring the amount of trehalose produced from maltose. The standard reaction was performed by adding 1.5 μL purified enzyme into 50 μL reaction solution containing 50 mM sodium phosphate (pH 6.0) and 150 mM maltose and incubating in a 45° C. water bath for 25 min. The assay time was under the linear range of enzyme reaction. The reaction was terminated by heating the mixture in boiling water for 15 min. One unit of enzyme activity was defined as the amount of enzyme that catalyzes the formation of 1 μmol of trehalose per min. Kinetic analysis was performed under conditions of pH 6.0 and 45° C. for 5 min in 50 mM sodium phosphate buffer containing substrate (maltose, trehalose, or maltose plus a constant 10 mM of glucose) at various concentrations. The resulting data were analyzed offline with Origin 6.0 software (Microcal, Northampton, Mass.). All experiments were carried out in duplicate or triplicate.
(§2) The amount of trehalose, glucose, and maltose after each enzymatic reaction was measured using a high performance liquid chromatography (HPLC) (SFD 2100) system equipped with an RI detector (Schambeck S F D, RI 2000) at a flow rate of 0.9 mL/min. A carbohydrate analysis column (HYPERSIL-100 Amino, Thermo Hypersil-Keystone) equilibrated with 75% acetonitrile, 24% Milli-Q water, and 1% formic acid was used. The retention times of glucose, maltose, and trehalose were 8.0, 11.2, and 12.5 min, respectively.

[2] = type: biochemical, Picrophilus torridus
Description: FIG. 2 is a graph which illustrates the effects of pH on the activity and stability of Picrophilus torridus trehalose synthase. The enzyme activities at various pH levels were examined at the maltose concentration of 150 mM and temperature of 45° C. for 25 min. The pH stability of Picrophilus torridus trehalose synthase enzyme was examined by measuring the residual activity of enzyme at pH 6.0 after pre-incubation in various pH levels at 45° C. for 20 min. The solid square (▪) and circle (●) notations indicate the enzyme activity under 50 mM sodium phosphate buffer (pH 6.0˜8.5) and 50 mM acetate buffer (pH 3.5˜6.0), respectively. The open square (□) and circle (◯) notations represent the pH stability under 50 mM sodium phosphate buffer (pH 6.0˜8.5) and 50 mM acetate buffer (pH 3.5˜6.0), respectively.
FIG. 3 is a graph which illustrates the effects of temperature on the activity and stability of Picrophilus torridus trehalose synthase. The enzyme activities at various temperatures were examined at the maltose concentration of 150 mM and pH 6.0 for 25 min. To examine temperature stability, the residual activity of the enzyme was measured at 45° C. after pre-incubation of the purified enzyme at different temperatures (4° C.˜100° C.) and pH 6.0 for 20 min. The solid circle (●) and open circle (◯) notations denote the enzyme activity and temperature stability, respectively, under various temperatures.
as §1
Effects of pH and Temperature on the Activity and Stability of Recombinant PTTS. The pH dependence of PTTS was studied at 45° C. in 50 mM acetate buffer (pH 3.5-6.0) or 50 mM phosphate buffer (pH 6.0-8.5) using 150 mM maltose as a substrate. […] The effects of temperature on PTTS activity and stability are depicted in FIG. 3. The optimum temperature was 45° C. and the enzyme maintained stability up to 60° C. at pH 6.0 for 20 min.

[3] = Kinetic analysis of PTTS with maltose or trehalose as substrate; type: biochemical, Picrophilus torridus; conditions: pH 6.0, 45° C., 5 min
Description: as §1
Kinetics Analysis. Kinetic parameters of PTTS were investigated at pH 6.0 and 45° C. for 5 min using maltose or trehalose as substrate (FIG. 7). […] This kinetic data is useful for determining the baseline activity of the enzyme and enables one of skill in the art to use this activity as a criterion for the isolation or construction of variants having substantially equivalent enzymatic activity.

[4] = Effects of substrate concentration and temperature on the maximum yield of trehalose; type: biochemical, Picrophilus torridus
Description: FIG. 4 is a graph which illustrates the effects of substrate concentration on the maximum yield of trehalose by Picrophilus torridus trehalose synthase. Purified enzyme was incubated with different concentrations of maltose in 50 mM sodium phosphate buffer (pH 6.0) at 45° C. Samples were collected at various intervals of reaction time and analyzed by HPLC. The symbols which indicated different concentrations of maltose are open square (□) 1 M; solid square (▪), 500 mM; solid triangle (▴), 250 mM; open rhombus (⋄), 150 mM, and open circle (◯), 50 mM.
FIG. 5 is a series of graphs illustrating the effects of temperature on the formation of trehalose (5A) and glucose (5B) from maltose (5C) by Picrophilus torridus trehalose synthase. Reaction mixtures containing purified Picrophilus torridus trehalose synthase, 150 mM maltose and pH 6.0 sodium phosphate buffer were incubated at various temperatures for 72 h. Samples were collected at various intervals and analyzed by HPLC. The symbols which indicated different reaction temperatures are open square (□) denoting temperature of 20° C.; solid square (▪) denoting temperature of 30° C.; solid triangle (▴) denoting temperature of 45° C.; and open triangle (Δ) denoting temperature of 0° C.
as §2
Effects of Substrate Concentration and Temperature on the Maximum Yield of Trehalose. The effects of the substrate concentration on the yield of trehalose by PTTS were examined at pH 6.0, 45° C., and various maltose concentrations. A maximum conversion was reached after 24 hour incubation for each reaction. The final yield of trehalose increased as the substrate concentration increased. […] Therefore, a higher maximum yield was gained at a lower temperature.

[5] = as above; type: biochemical, Picrophilus torridus; conditions: 150 mM maltose, pH 6.0, 60° C., three days
[6] = 150 mM maltose, pH 6.0, 20° C., three days
[7] = 150 mM maltose, pH 6.0, 30° C., three days
[8] = 150 mM maltose, pH 6.0, 45° C., three days
[9] = 150 mM maltose, pH 6.0, 60° C., three days

B1: PTTS: recombinant Picrophilus torridus trehalose synthase with C-terminal linker and His(6)-tag (SEQ ID NO: 4), expressed in E. coli (protein, listed as Picrophilus torridus)
chain: MLDNNGLWYRDAVFYEVPVKSFYDSNNDGIGDFNGLTMKLDYLKKLGVDALWLLPFYKSPLKDDGYDISDYYSILPEYGTIDDFKNFIDTAHSMNIRVIADLVLNHVSDQHPWFIESRSSIDNPKRDWFIWSDTPEKFKEARIIFIDTEKSNWTYDPETKQYYFHRFYSSQPDLNYDNPDVRNEVKKVIRYWLDLGLDGFRADAVPYLFKRENTNCENLPETHNFFKEIRKMMDEDYPGTILLAEANQWPTETKAYFGNGDEFHMAFNFPLMPRIFIALARSDYYPIMDIIKQTLPIPDNCDWCIFLRNHDELTLEMVTDSERDIMYREYAKIPKMRLNLGIRRRLAPLADNDINTIELLNALIFSLPGTPIIYYGDEIGMGDNIYLGDRNGVRTPMQWSYDRNAGFSMADSEQLYSPVITNPNYHYESVNVEAELRLSSSLLNWMIKIIHVRKDYKELLGRGSIKFIEQGNKRVLSYIREYENQRMLCLFNLSRNPTYVELNLSDYIGLKPIEAITKAAFPRIKDDRYFITMTPRSFFWFNLIVPERDDSYDLIGEDANSRVDKLAAALEHHHHHH
[1]; purified recombinant His-tag PTTS after Ni-column, 1 unit = 1 μmol trehalose per min
  specific activity: 80 units per mg of protein
[1]; recombinant PTTS, estimated
  specific activity toward maltose: about 80 units/mg protein
[1]; toward maltose
  specific activity as share of that of T. aquaticus trehalose synthase: about 60%
  specific activity relative to M. smegmatis trehalose synthase: about 2.8 fold
  specific activity relative to P. stutzeri CJ38 trehalose synthase: roughly equal
  specific activity relative to Pimelobacter trehalose synthase: about 4.7 fold
[2]; 45° C., 150 mM maltose
  activity at pH 5.0: maintained high activity
[2]; 45° C., 150 mM maltose, acetate or phosphate buffer
  optimum pH: 6.0
[2]; pH 5.0
  activity maintained at pH 5.0: 80%
[2]; pH 6.0, 150 mM maltose
  optimum temperature: 45 °C
[3]
  enzyme efficiency (kcat/KM) toward maltose relative to trehalose: 2.5 fold
  kcat for trehalose relative to maltose: twofold higher
[4]; [6]
  glucose content: 3.6%
  maltose content: 25.4%
  maximum conversion of maltose into trehalose: 71%
[4]; [7]
  glucose content: 4.3%
  maltose content: 27.6%
  maximum conversion of maltose into trehalose: 68%
[4]; [8]
  glucose content: 7.8%
  maltose content: 31.2%
  maximum conversion of maltose into trehalose: 61%
[4]; [9]
  glucose content: 19.2%
  maltose content: 31.3%
[4]; pH 6.0, 45° C., each maltose concentration
  incubation time to reach maximum conversion: 24 h
[4]; pH 6.0, 45° C., various maltose concentrations (50 mM to 1 M)
  maximum conversion of maltose into trehalose: around 60%
[5]
  maximum conversion of maltose into trehalose: 50%
